The values that follow come from patent US20140051633A1.

Test [1] addresses human Hepatocyte Growth Factor (HGF) (human) (UniProt P14210). Description: competition with ^3H-Hinge for soluble HGF.
Test [2] has the same target. Description: competition with ^3H-Hinge for soluble HGF (1.25 ng), Bio-Gel P6 spin columns, scintillation counting.
For test [3], the target named is Hepatocyte Growth Factor (HGF), species not stated (Homo sapiens (Human)) (UniProt P14210). Description: ^3H Dihexa binding to HGF (FIG. 43), repeated in the text.
Sequence of Hepatocyte Growth Factor (HGF), species not stated (Homo sapiens (Human)) (P14210 32-494 limits assumed, form in doubt, chain 1 of 2): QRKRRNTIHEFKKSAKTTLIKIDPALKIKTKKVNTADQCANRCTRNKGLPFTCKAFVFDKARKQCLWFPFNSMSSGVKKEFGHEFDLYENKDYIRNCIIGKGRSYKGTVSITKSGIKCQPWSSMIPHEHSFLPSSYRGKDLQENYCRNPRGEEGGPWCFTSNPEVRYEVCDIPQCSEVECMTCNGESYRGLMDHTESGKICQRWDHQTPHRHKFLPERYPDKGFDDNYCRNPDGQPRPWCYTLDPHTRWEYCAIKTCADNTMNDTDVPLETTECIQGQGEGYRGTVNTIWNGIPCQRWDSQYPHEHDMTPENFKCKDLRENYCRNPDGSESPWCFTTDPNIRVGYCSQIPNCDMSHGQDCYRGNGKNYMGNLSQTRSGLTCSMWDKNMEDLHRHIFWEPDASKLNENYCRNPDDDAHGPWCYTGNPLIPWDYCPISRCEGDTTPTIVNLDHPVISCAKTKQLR
Sequence of Hepatocyte Growth Factor (HGF), species not stated (Homo sapiens (Human)) (P14210 495-728 limits assumed, form in doubt, chain 2 of 2): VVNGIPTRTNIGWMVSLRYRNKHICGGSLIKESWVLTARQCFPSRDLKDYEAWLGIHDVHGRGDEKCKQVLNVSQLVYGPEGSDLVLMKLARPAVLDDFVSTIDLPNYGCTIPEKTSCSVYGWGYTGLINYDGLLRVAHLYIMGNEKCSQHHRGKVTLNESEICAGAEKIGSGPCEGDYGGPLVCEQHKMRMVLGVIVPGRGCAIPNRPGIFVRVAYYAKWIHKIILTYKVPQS
Test [4] shares this target. Description: ^3H Dihexa incubated with different concentrations of HGF, Biogel P6 columns, scintillation counting.

Sequence of human Hepatocyte Growth Factor (HGF) (human) (P14210 32-728 limits assumed): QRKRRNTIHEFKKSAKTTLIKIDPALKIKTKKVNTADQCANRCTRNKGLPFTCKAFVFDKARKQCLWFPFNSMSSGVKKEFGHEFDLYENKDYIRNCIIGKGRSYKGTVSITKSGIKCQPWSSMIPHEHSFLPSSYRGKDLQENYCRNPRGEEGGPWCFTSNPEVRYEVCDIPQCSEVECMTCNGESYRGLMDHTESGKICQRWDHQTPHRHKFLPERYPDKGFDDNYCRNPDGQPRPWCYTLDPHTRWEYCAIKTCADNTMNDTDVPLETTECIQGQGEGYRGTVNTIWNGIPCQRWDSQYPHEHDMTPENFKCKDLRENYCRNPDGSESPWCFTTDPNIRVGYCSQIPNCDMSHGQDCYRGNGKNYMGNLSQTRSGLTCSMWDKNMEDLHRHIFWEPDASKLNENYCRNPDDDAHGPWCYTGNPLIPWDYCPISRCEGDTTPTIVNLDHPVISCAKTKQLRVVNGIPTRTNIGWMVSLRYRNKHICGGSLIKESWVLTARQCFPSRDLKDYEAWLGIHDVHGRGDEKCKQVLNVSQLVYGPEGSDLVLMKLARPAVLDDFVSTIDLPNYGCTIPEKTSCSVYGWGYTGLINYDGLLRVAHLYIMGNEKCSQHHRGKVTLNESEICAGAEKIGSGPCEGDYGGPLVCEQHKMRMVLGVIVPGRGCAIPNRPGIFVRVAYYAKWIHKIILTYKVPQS

For orientation: Ki means a measure of affinity in units of concentration, obtained from inhibition or displacement. Read a low Ki as a stronger hold on the target. Turning to D-Nle-Met-Ile-NH-(CH2)5-CONH2 (peptide), the results for the Ki in test [1] and in test [2] were 137 nM and 138 nM, respectively.
D-Nle-Trp-Ile-NH-(CH2)5-CONH2 (peptide) displayed a Ki in test [2] of 3.37 nM.
By Kd is commonly meant the concentration at which binding is half-saturated. The low end stands for tighter binding, the high end for weaker binding. Turning to “Dihexa (N-hexanoic-Tyr-Ile-(6)-aminohexanoic amide) (peptide)”, the Kd was determined as 0.00022 nM in test [3] and 0.000221 nM in test [4].
For D-Nle-Cys-Ile-NH-(CH2)5-CONH2 (peptide), the Ki in test [1] and in test [2] was 0.133 nM in each case.
